Reference: PMC6651862

Target: HCMV trimeric gH/gL recombinant protein (human cytomegalovirus, strain Merlin | T4 phage) (UniProt F5HCH8)
Assay: native gel or EMSA

HCMV trimeric gH/gL recombinant protein (from UniProt F5HCH8;Q6SW67)
stoichiometry N: 3
